The values below are quoted from earlier work in PMC8239176.

This data set addresses KLC1 (Homo sapiens) (UniProt Q07866).
Sequence of UniProt Q07866 (Q07866 whole entry): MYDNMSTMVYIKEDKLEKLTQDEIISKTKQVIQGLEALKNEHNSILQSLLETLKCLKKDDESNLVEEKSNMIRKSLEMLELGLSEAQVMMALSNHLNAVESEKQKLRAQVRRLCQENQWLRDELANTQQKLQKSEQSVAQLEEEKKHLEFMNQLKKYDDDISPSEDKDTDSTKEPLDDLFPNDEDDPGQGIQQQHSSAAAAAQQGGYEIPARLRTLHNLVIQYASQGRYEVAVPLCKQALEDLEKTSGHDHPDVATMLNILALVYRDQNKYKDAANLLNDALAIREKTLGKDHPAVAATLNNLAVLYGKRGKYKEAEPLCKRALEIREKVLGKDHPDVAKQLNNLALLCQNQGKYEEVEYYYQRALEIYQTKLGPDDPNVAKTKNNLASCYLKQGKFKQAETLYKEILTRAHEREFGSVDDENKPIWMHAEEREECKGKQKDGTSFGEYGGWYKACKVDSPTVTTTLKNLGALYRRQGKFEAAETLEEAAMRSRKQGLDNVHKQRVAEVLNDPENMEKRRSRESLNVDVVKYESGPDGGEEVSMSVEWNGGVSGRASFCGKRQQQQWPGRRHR

Regarding SFPQ (from UniProt P23246), the Kd (as a rule, a measure of binding affinity in units of concentration) was 3.8 µM.
